We go through eight molecules from patent US20220153862A1 (CSPC MEGALITH BIOPHARMACEUTICAL, published 2022).

For orientation: Kd means the concentration at which binding is half-saturated. A lower Kd goes with a tighter complex. The term koff denotes a measure of how fast the partners let go of each other. A higher koff goes with a short-lived complex. For orientation: kon means the second-order rate constant of association. Read a low kon as slower complex formation.

The target in experiment [1] is T1, human Trophoblast cell surface antigen 2 (TROP2) (human, UniProt P09758 27-274, limits assumed).
T1 construct: Analyte in the SPR experiments and immunogen; also called human TROP2
T1 sequence: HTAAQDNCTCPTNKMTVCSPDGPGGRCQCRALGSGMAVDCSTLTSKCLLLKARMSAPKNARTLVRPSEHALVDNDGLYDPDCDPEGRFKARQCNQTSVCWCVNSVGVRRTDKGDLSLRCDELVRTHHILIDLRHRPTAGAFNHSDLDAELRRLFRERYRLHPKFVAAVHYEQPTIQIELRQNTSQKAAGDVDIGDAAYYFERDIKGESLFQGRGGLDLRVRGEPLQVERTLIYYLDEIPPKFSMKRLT
As to the kind of experiment: SPR, TROP2 as analyte. (In general: In SPR one partner is held on a chip, and binding of the other changes the refractive index at the surface.)

Experiment [2] concerns the target T2, TROP2 expressed on human cancer cell lines (human, UniProt P09758 27-323).
T2 sequence: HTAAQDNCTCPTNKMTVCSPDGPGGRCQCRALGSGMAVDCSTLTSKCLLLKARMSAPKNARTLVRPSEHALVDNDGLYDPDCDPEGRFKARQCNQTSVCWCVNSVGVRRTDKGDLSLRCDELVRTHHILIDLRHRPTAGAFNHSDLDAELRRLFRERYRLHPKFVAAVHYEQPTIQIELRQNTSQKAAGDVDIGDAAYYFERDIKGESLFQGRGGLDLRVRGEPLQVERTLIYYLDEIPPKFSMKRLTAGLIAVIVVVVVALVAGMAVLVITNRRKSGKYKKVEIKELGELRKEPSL
As to the kind of experiment: cell-based or functional assay.

Experiment [3] addresses T1, human Trophoblast cell surface antigen …. The experiment is described as follows: SPR affinity ranking, human TROP2.
Experiment [4] concerns the target T2, TROP2 expressed on human cancer cell …. The experiment is described as follows: cell-based or functional assay. This is another data set of the same source.
The target of experiment [5] is human Trophoblast cell surface antigen 2 (TROP2) (human) (UniProt P09758). As to the kind of experiment: SPR, TROP2 as analyte.
Experiment [6] addresses T2, TROP2 expressed on human cancer cell …. As to the kind of experiment: flow cytometry of SKBR3 cells after overnight incubation with the antibody pre-mixed with pHAb-labelled secondary antibody (internalization assay); x axis pHAb-A, y axis Count. As for the experimental part: FACS experiments were performed to verify that antibodies 1B3, 15D9, 15A10, 17B6, and 17D1 were internalized by SKBR3 cells. SKBR3 is a TROP2-expressing human breast carcinoma cell line. Briefly, 1.2×10⁵ SKBR3 cells were seeded into each 12-well plates and cultured overnight. 300 μL of 20 nM control antibody, 1B3, 15D9, 15A10, 17B6, or 17D1 (in DMEM-10) were mixed with 300 μL 60 nM pHAb-labelled secondary antibody for 15 minutes at room temperature in the dark. The labeled antibodies mixtures were added to the SKBR3 cells and incubated overnight. Following overnight incubation, the SKBR3 cells were trypsinized, washed twice with 1% BSA/PBS, and analyzed via flow cytometry.
(In general: A flow cytometer gives signals particle by particle.)

B1: HC4/LC5 (antibody, human IgG1, kappa, V domains shown)
VH: QVQLVQSGAEVKKPGSSVKVSCKASGYTFTDYSINWVRQAPGQGLEWMGVISTYYGDASYNQKFKGRVTITADESTSTAYMELSSLRSEDTAVYYCARYGDGYNQFDYWGQGTLVTVSS
VL: DIQMTQSPSSLSASVGDRVTITCRVSESVDSYGNNFMHWYQQKPGKAPKLLIYRASNLESGVPSRFSGSGSGTDFTFTISSLQPEDIATYYCQQSYEDPYTFGGGTKLEIKR
notes: Humanized anti-TROP2 antibody; also called DP002-HC4LC5; DP002HC4LC5
B1: in experiment [1], binding was characterised by a dissociation constant (Kd) of 0.0184 nM, the koff was 4.05e-05 s⁻¹ and the kon worked out at 2.2e+06 M⁻¹ s⁻¹. Besides, in experiment [2], the “IC50 (nM), in vitro cytotoxicity, BxPC-3 cells” value is more than 100 nM; the “IC50 (nM), in vitro cytotoxicity, HCC1954 cells” value was more than 100 nM; the “IC50 (nM), in vitro cytotoxicity, NCI-N87 cells” value was more than 100 nM. In experiment [3], this molecule returned a Kd of 0.0801 nM, a koff of 0.000138 s⁻¹ and a kon of 1.72e+06 M⁻¹ s⁻¹.

B2: HC1/LC1 (antibody, human IgG1, kappa, V domains shown)
VH: QVQLVQSGAEVKKPGASVKVSCKASGYTFTDYSINWVRQAPGQGLEWMGVISTYYGDASYNQKFKGRVTMTTDTSTSTAYMELRSLRSDDTAVYYCARYGDGYNQFDYWGQGTMVTVSS
VL: DIVMTQSPDSLAVSLGERATINCRVSESVDSYGNNFMHWYQQKPGQPPKLLIYRASNLESGVPDRFSGSGSGTDFTLTISSLQAEDVAVYYCQQSYEDPYTFGQGTKLEIKR
notes: Humanized anti-TROP2 antibody; also called DP002-HC1LC1
In experiment [1], B2 gave a Kd of 0.0662 nM, a koff of 0.00013 s⁻¹ and a kon of 1.97e+06 M⁻¹ s⁻¹. In experiment [4], the “IC50 (nM), in vitro cytotoxicity, HCC38 cells” value was more than 100 nM and the “IC50 (nM), in vitro cytotoxicity, MDA-MB-468 cells” value was more than 100 nM. In experiment [3], this molecule gave a Kd of 0.0645 nM, a koff of 0.000105 s⁻¹ and a kon of 1.63e+06 M⁻¹ s⁻¹.

B3: biosimilar of the anti-TROP2 antibody sacituzumab (antibody, INN chains, looked up, V domains shown)
VH: QVQLQQSGSELKKPGASVKVSCKASGYTFTNYGMNWVKQAPGQGLKWMGWINTYTGEPTYTDDFKGRFAFSLDTSVSTAYLQISSLKADDTAVYFCARGGFGSSYWYFDVWGQGSLVTVSS
VL: DIQLTQSPSSLSASVGDRVSITCKASQDVSIAVAWYQQKPGKAPKLLIYSASYRYTGVPDRFSGSGSGTDFTLTISSLQPEDFAVYYCQQHYITPLTFGAGTKVEIKR
modifications: biosimilar
In experiment [5], B3 had a Kd of 0.4 nM, a koff of 0.000204 s⁻¹ and a kon of 511000 M⁻¹ s⁻¹.

B4: anti-TROP2 antibody 1B3 (antibody, V domains shown)
VH: QVQLQQSGAELVRPGVSVKISCKGSGYTFTDYSINWVKQSHAKSLEWIGVISTYYGDASYNQKFKGKATMTVDKSSSTAYMELARLTSEDSAIYYCARYGDGYNQFDYWGQGTTLTVSS
VL: DIVLTQSPASLAVSLGQRATISCRVSESVDSYGNNFMHWYQQKPGQPPKLLIYRASNLESGVPARFSGSGSGTDFTLTINPMEADDVATYYCQQSYEDPYTFGGGTKLEIK
notes: Mouse anti-human TROP2 hybridoma antibody
B4: in experiment [6], the binding result is given as “binds”.

B5: anti-TROP2 antibody 15D9 (antibody, V domains shown)
VH: QVQLQQSGAELVRPGVSVKISCKGSGYTFTDYSIHWVKQSHAKSLEWIGVISSYYGDATYNQKFKGKATMTVDKSSSTAYMELARLTSEDSAIYYCALLGAYNYFDYWGQGTTLTVSS
VL: DIVLTQSPASLAVSLGQRATISCRASESVDSYGNSFMHWYQQKPGQPPKLLVYRASNLESGIPARFSGSGSRTDFTLTINPVEADDVATYYCQQSYEDPPTFGGGTKLEIK
notes: as for B4
Take B5: in experiment [6], the binding result is “binds”.

B6: anti-TROP2 antibody 15A10 (antibody, V domains shown)
VH: EVQLEQSGPGLVQPSQSLSITCTVSGFSLTRYGVHWVRQSPGRSLEWLGVIWSGGNTDYNAAFISRLTITKDNSKSQVFFKMNSLQPNDTGVYYCAREDRYVGEFAYWGQGTLVTVSA
VL: DIVLTQSTASLAVSLGQRATISCRASESVDSYGNSFIHWYQQKPGQPPKLLIYRASNLESGIPARFSGSGSRTDFTLTINPVEADDVATYYCQQSNEDPRTFGGGTKLEIK
notes: as for B4
For B6, the binding result in experiment [6] is reported as “binds”.

B7: anti-TROP2 antibody 17B6 (antibody, V domains shown)
VH: QVQLQQSGAELVRPGVSVKISCKGSGYTFTDYGMNWVKQSHAKSLEWIGVISTFYGDANYNQKFKGKATMTVDKSSSTAYMELARLTSEDSAIYYCARRGNYDSMDYWGQGTSVTVSS
VL: DIVLTQSPVFLAVSLGQRATISCRASESVDSYGNSFMHWYQQKPGQPPKLLIYRASNLESGIPARFSGSGSRTDFTLTINPVEADDVETYYCQQSYEDPPTFGGGTKLEIE
notes: as for B4
As to B7, the binding result in experiment [6] was “binds”.

B8: anti-TROP2 antibody 17D1 (antibody, V domains shown)
VH: QVQLQQSGAELVRPGVSVKISCKGSGYTFTDYSIHWVKQSHAKSLEWIGLISTYYGDATYTQKFKGKATMTVDKSSSTAYMELARLTSEDSAIYYCALLGAYNYFDYWGQGTTLTVSS
VL: DIVLTQSPASLAVSLGQRATISCRASESVDSYGNSFMHWYQQKPGQPPKLLVYRASNLESGIPARFSGSGSRTDFTLTINPVEADDIATYYCQQSYEDPPTFGGGTKLEIK
notes: as for B4
Regarding B8, the binding result in experiment [6] is listed as “binds”.
